Assay results as given in patent US20210198377A1 (XDCEXPLORER SHANGHAI, published 2021).
Residue numbers refer to the chain shown, from its start.

T1: human TPBG (full length, on cells) (human, UniProt Q13641 32-420)
T1 sequence (looked up): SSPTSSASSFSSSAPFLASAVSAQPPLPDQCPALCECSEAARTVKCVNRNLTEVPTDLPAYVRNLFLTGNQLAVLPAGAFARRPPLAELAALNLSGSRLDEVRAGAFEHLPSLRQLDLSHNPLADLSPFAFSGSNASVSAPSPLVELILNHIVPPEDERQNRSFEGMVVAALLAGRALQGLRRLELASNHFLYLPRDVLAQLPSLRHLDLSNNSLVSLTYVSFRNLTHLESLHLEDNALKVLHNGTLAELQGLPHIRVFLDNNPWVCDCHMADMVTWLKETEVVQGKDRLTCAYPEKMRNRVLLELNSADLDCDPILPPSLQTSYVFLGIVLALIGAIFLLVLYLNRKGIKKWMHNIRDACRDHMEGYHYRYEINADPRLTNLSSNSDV

B1: 52C9E9F6-MMAF (antibody, DAR 8, V domains shown)
VH: QVQLQQSGAELMKPGASVKLSCKATGYTFTGYWIEWIKQRPGHGLEWIGEILPGRGSTDYNEKFKGKATFTADTSSNTAYMQLSSLTTEDSAIYYCTRGRLDFTYWGQGTLVTVSA
VL: DIQMTQTTSSLSASLGDRVTISCSASQGIRNYLNWYQQKPDGTVKLLIYYTSSLHSGVPSRFSGSGSGTDYSLTISNLEPEDIATYYCQQYSKVPWTFGGGTKLEIK
modifications: MC-MMAF on cysteines after TCEP reduction, sites not stated
B2: 39A11G5F2-MMAF (antibody, DAR 8, V domains shown)
VH: QVQLQQSGAELMKPGASMRLSCKATGYTFTGYWLEWIKRRPGHGLEWIGEILPGRGSTNYNEKFKGKATFTAETSSNTAYMQLTSLTTEDSAIYYCARGGRDFDNWGQGTTLTVSS
VL: B1 VL with T7S, R30N, Y32H, T85I, Y91F, V94L, W96Y, L104V, I106M
modifications: MC-MMAF on cysteines after TCEP reduction, sites not stated
B3: 103E2E9C2-MMAF (antibody, DAR 8, V domains shown)
VH: EVQLQQSGPVLVKPGASVKMSCEASGYSFIDYYMSWVKQSRGRSLEWIGVFNPYSGEIIYNQKFKGKATLTVDKSSSTAYMELSSLTSEDSGVYSCARLRISYYAIDYWGQGTSVAVSS
VL: ENVLTQSPAIMSASPGEKVTMTCRATSSVSSGHFHWYQQKSGASPKVWIYSTSNLASGVPARFSGSGSGTSFSLTISSVEAEDVATYFCQQYSGYPLTFGGGTKLEIK
modifications: MC-MMAF on cysteines after TCEP reduction, sites not stated
B4: 12B12C7C3-MMAF (antibody, DAR 8, V domains shown)
VH: DVQLVESGGGLVQPGGSRKLSCAASGFTFSNFGMHWVRQAPEKGLEWVAYISSGSTSFYYADTVKGRFTISRDNPKNTLFLQMTSLRSEDTAMYYCSRTNSLLRGFFDAWGAGTTVTVSS
VL: DIVLTQSPASLAVSLGQRATISCRASQSVSSSSYTYLHWYQQKPGQPPKLLIKSASNLESGVPARFSGTGSGTDFTLNIHPVEEEDTATYYCQHSWEIPLTFGAGTKLELK
modifications: MC-MMAF on cysteines after TCEP reduction, sites not stated
B5: 106D5G3D10-MMAF (antibody, DAR 8, V domains shown)
VH: EVQLVESGGGLVKPGGSLKLSCAASGFTFSDYGMHWVRQAPEKGLEWVGYISSGTYVVYYADTVKGRFTISRDNAKNTLFLQMTSLRSEDTAIYYCSTYGSNPFDYWGQGTTLTVSS
VL: QLVLTQSPAIMSASPGEKVTITCSATSSVSSMHWFQQKPVTSPKLWIYSTSNLASGVPTRFSGSGSGTSYSLTISRMEAEDAATYYCQQRSGYPPIFTFGSGTKLEIK
modifications: MC-MMAF on cysteines after TCEP reduction, sites not stated
B6: 36A10D8B12-MMAF (antibody, DAR 8, V domains shown)
VH: DVQLQESGPGMVKPSQSLSLTCTVTGYSITSGYDWHWIRHFPGNKLEWMGYISYSGNTNYNPSLKSRISITHNTSKNHFFLRLNSVTTEDTATYYCARGYGNWDAMDYWGQGTSVTVSS
VL: DIVMTQSQKFMSTSVGDRVSVTCKASQIVDTNVAWYQQKPGQSPKALISSASYRYSGVPDRFTGSGSGTDFTLTISNVQSEDLAEYFCQQYNSYPLTFGAGTKLELT
modifications: MC-MMAF on cysteines after TCEP reduction, sites not stated
B7: 37H9C5G2-MMAF (antibody, DAR 8, V domains shown)
VH: QVQLQQSDAELVRPGASVKMSCKVSGYTFTDHTIHWMKQRPEQGLEWIGYIYPRDGSGTYNEKFKGKATLTADKSSSTAYMQLNSLTSEDSAVYFCARDGSSHYWYFDVWGTGTTVTVSS
VL: DIQMTQSPASLSASVGETVTITCRASEIIYNYLAWYQQKQGKSPQLLVYNAKTLAEGVPSRFSGSYSGTQFSLNINSLQSEDFGIYYCQHHHDTPLTFGAGTKLDLK
modifications: MC-MMAF on cysteines after TCEP reduction, sites not stated
B8: 99E12C7H1-MMAF (antibody, DAR 8, V domains shown)
VH: QIQLVQSGPELKKPGETVKISCKPSGYTFTAYGLSWVKQAPGQGFQWMGWINTYSGVPTYTDDFKGRFAFSLETSAGTASLQITNLKNEDTATYFCARSSIPPFEYWGPGTTLTVSS
VL: SFVMTQSPKFLLVSVGDRVTITCKASQSVSNDVAWYQQKPGQPPRVLIYFASNRYTGVPDRFTGSGYGTDFTFTISTVQAEDLALYFCQQDYSSPWTFGGGTKLEIK
modifications: MC-MMAF on cysteines after TCEP reduction, sites not stated
B9: 28D4E6A9-MMAF (antibody, DAR 8, V domains shown)
VH: DVQLVESGGGLVRPGGSLKLSCAASGFTFSNYVMSWARQSPEKRLEWVAEISTGGSHTYYSDTVTGRFTISRDNAKKALYLEMSSLRSEDTAIYYCIMFYYGSSYSMDYWGQGTSVTVSS
VL: DIQMTQSTSSLSASLGDRITISCRASQDIRNYLNWYQQKPDGTVKLLIYHTSRLHSGVPSRFSGSGSGTDYSLTISNLEQEDIATYFCQQGDTLPLTFGAGTRLELK
modifications: MC-MMAF on cysteines after TCEP reduction, sites not stated
B10: 5G4H10G5-MMAF (antibody, DAR 8, V domains shown)
VH: EVQLVESGGDLVQPGGSLKLFCAASGFTFSTYGLSWVRQTPDKRLELVATITNNDGSAYYPDSVKGRFTISRDKAKNTLFLQMTSLKSEDTAMYYCARETGFGSSYLFDYWGQGTLVTVSA
VL: NIVMTQTPKFLLVSAGDRVTITCKASQSVSNDVAWYQQKPGQSPKLLIYFATNRYTGVPNRFTGSGYGTEFTFTISSVQAEDLAVYFCQQDYSSPTFGGGTKLEIK
modifications: MC-MMAF on cysteines after TCEP reduction, sites not stated
B11: Chimeric Antibody 12B12-MMAE (antibody, human IgG1, DAR about 3, V domains shown)
VH: B4 VH
VL: B4 VL
modifications: MC-VC-PAB-MMAE on cysteines after TCEP reduction, sites not stated
B12: Chimeric Antibody 12B12 (antibody, V domains shown)
VH: B4 VH
VL: B4 VL
B13: Chimeric Antibody 12B12-DM1 (antibody, human IgG1, DAR about 3, V domains shown)
VH: B4 VH
VL: B4 VL
modifications: SMCC-DM1, sites not stated
B14: Chimeric Antibody 28D4-MMAE (antibody, human IgG1, DAR about 3, V domains shown)
VH: B9 VH
VL: B9 VL
modifications: MC-VC-PAB-MMAE on cysteines after TCEP reduction, sites not stated
B15: Chimeric Antibody 28D4 (antibody, V domains shown)
VH: B9 VH
VL: B9 VL
B16: Chimeric Antibody 28D4-DM1 (antibody, human IgG1, DAR about 3, V domains shown)
VH: B9 VH
VL: B9 VL
modifications: SMCC-DM1, sites not stated
B17: Chimeric Antibody 39A11-MMAF (antibody, human IgG1, DAR 3, V domains shown)
VH: B2 VH
VL: B1 VL with T7S, R30N, Y32H, T85I, Y91F, V94L, W96Y, L104V, I106M
modifications: MC-MMAF on cysteines after TCEP reduction, sites not stated
B18: Chimeric Antibody 36A10-MMAF (antibody, human IgG1, DAR 3, V domains shown)
VH: B6 VH
VL: B6 VL
modifications: MC-MMAF on cysteines after TCEP reduction, sites not stated
B19: Chimeric Antibody 5G4-MMAF (antibody, human IgG1, DAR 3, V domains shown)
VH: B10 VH
VL: B10 VL
modifications: MC-MMAF on cysteines after TCEP reduction, sites not stated

What follows are binders tested against T1, human TPBG (full length, on cells) (assay: cell-based or functional assay).

Point of comparison: B7, “EC50 of cytotoxicity on TPBG-positive NCI-H1568 cells (CellTiter-Glo)” value 0.12 nM. Against it:
- B1 — 12-fold higher, 1.49 nM
- B2 — 2.4-fold higher, 0.285 nM
- B3 — within 1.5-fold, 0.135 nM
- B4 — 2.9-fold lower, 0.042 nM
- B5 — 1.7-fold higher, 0.208 nM
- B6 — 1.8-fold lower, 0.066 nM
- B8 — 7-fold higher, 0.844 nM
- B9 — 3.2-fold lower, 0.038 nM
- B10 — 5.2-fold higher, 0.626 nM

Biological target: T1, human TPBG (full length, on cells)
Experiment: cell-based or functional assay
Remark: another data set of the same source

Point of comparison: B11, “IC50 of cytotoxicity on recombinant 293-hTPBG cells (CellTiter-Glo)” value 0.033 nM. Against it:
- B12 — 410-fold higher, 13.6 nM
- B13 — 4.7-fold higher, 0.154 nM
- B14 — 2.4-fold higher, 0.08 nM
- B15 — 35-fold higher, 1.14 nM
- B16 — 12-fold higher, 0.406 nM

Biological target: T1, human TPBG (full length, on cells)
Experiment: cell-based or functional assay
Remark: another data set of the same source

Point of comparison: B17, “IC50 of cytotoxicity on TPBG-positive NCI-H1299 cells (CellTiter-Glo)” value 4.3 nM. Against it:
- B18 — 6.1-fold lower, 0.7 nM
- B19 — 20-fold higher, 87.3 nM

Biological target: T1, human TPBG (full length, on cells)
Experiment: cell-based or functional assay
Remark: another data set of the same source

Point of comparison: B14, “IC50 of cytotoxicity on TPBG-positive NCI-H1299 cells (CellTiter-Glo)” value 369 nM. Against it:
- B11 — not separable, > 100 nM
- B13 — 35-fold lower, 10.4 nM
- B16 — 61-fold lower, 6.08 nM

Point of comparison: B13, “IC50 of cytotoxicity on TPBG-positive NCI-H1568 cells (CellTiter-Glo)” value 1.27 nM. Against it:
- B11 — higher, > 100 nM
- B14 — higher, > 100 nM
- B16 — 2-fold higher, 2.51 nM
